Patent US20250197451A1 (CAPITAL MEDICAL UNIVERSITY SCHOOL OF STOMATOLOGY, published 2025)

Each binder was assayed against T1, biotin-labelled EZH2 protein (UniProt Q15910 1-746, limits assumed, biotin label (EZ-link NHS-PEO4-Biotinylation kit)) (assay: KDM2B peptide array probed with biotin-EZH2 1 ug/ml, SA-HRP/ECL;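 further: Background-corrected optical density of each spot on the membrane, given as percent of the brightest spot (100%), color developed for 5 minutes; 100% is the highest background-corrected spot optical density on the membrane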).
T1 construct: Probe in solution (1 ug/ml) on the KDM2B peptide microarray; also called NHS-PEO4-Biotinylation-labelled EZH2 protein; recombinant protein
T1 sequence (Q15910 whole entry): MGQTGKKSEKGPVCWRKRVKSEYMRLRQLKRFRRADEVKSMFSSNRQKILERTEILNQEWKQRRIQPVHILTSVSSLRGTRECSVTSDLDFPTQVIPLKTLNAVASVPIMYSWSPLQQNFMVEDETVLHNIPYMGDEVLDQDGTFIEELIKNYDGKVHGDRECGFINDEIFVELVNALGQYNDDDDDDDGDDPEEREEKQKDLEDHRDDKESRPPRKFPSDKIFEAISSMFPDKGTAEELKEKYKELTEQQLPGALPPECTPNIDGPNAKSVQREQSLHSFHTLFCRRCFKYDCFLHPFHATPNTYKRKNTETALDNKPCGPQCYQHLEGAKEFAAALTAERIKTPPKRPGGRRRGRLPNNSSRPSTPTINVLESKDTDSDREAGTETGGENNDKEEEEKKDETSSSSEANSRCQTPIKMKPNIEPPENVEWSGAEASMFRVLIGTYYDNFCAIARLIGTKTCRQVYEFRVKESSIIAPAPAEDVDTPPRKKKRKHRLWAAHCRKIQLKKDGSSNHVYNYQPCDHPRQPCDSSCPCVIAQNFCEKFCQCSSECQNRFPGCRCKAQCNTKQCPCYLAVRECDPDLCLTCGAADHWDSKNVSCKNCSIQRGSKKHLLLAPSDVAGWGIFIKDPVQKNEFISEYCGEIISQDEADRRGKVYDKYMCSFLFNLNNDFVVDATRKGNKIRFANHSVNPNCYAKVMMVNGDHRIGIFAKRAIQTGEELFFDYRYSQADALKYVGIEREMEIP
Method: After blocking, the polypeptide microarray was incubated with biotin-labeled target protein for hybridization, visualized with the chemical chromogenic substrate and imaged using a Chempchemi digital imager. The image of colored polypeptide microarray was analyzed for the optical density of the colored points. Particularly, the optical density of each colored point was calculated using the optical density of the respective surrounding background as a reference for background correction. The highest optical density value of the colored point on membrane was set to 100%, and the optical density value of the remaining colored points was converted into percentages relative to the highest value. The points with an optical density percentage of more than 30% on the polypeptide membrane and also with an optical density percentage of less than 30% on the negative membrane were defined as positive colored points.
For the hybridization experiment, a solution of NHS-PEO4-Biotinylation-labelled EZH2 protein (1 μg/ml) was used for the hybridization of the polypeptide microarray. Streptavidin-HRP was used to amplify the reaction signal according to the experimental procedure and conditions described above, and the time of color development was 5 minutes.
With ADDDPSLAITGVPVV [peptide 112] the “Intensity (%)” value was 0%. In the case of KKCVPEGIEDPQALL [peptide 107], the “Intensity (%)” value is reported as 0%. For DRQRYDENEDLSDVE [peptide 10], the “Intensity (%)” value was 0%. For EFELKGLKALVEKLE [peptide 103], the “Intensity (%)” value was 4.44%. TWPKKTPKNRAVGRP [peptide 115] was tested, and the “Intensity (%)” value was 0%. With GSPATEVSAKWTHLT [peptide 100] the “Intensity (%)” value was 0%. With VEKLESLPENKKCVP [peptide 105] the “Intensity (%)” value was 20.3%. RTTAGARRRRTRCRK [peptide 121] was tested, and the “Intensity (%)” value was 1.31%. EGVKNVLKEHADDDP [peptide 110] was tested, and the “Intensity (%)” value was 0%. KGKLGPASAVKLAAN [peptide 118] was tested, and the “Intensity (%)” value was 0%. With EGIEDPQALLEGVKN [peptide 108] the “Intensity (%)” value was 0%. For GVPVVTWPKKTPKNR [peptide 114], the “Intensity (%)” value was 0%. In the case of WTHLTEFELKGLKAL [peptide 102], the “Intensity (%)” value is reported as 0%. With DENEDLSDVEEIVSV [peptide 11] the “Intensity (%)” value was 0%. For PQALLEGVKNVLKEH [peptide 109], the “Intensity (%)” value was 0%. In the case of VLKEHADDDPSLAIT [peptide 111], the “Intensity (%)” value is reported as 0.99%. For SLAITGVPVVTWPKK [peptide 113], the “Intensity (%)” value was 1.55%. For AVGRPKGKLGPASAV [peptide 117], the “Intensity (%)” value was 0%. For EVSAKWTHLTEFELK [peptide 101], the “Intensity (%)” value was 2.69%. For SLPENKKCVPEGIED [peptide 106], the “Intensity (%)” value was 3.77%. KLAANRTTAGARRRR [peptide 120] was tested, and the “Intensity (%)” value was 0%. For PASAVKLAANRTTAG [peptide 119], the “Intensity (%)” value was 0%. LSDVEEIVSVRGFSL [peptide 12] was tested, and the “Intensity (%)” value was 0.13%. For MAGPQMGGSAEDHPP [peptide 1], the “Intensity (%)” value was 0.25%. GLKALVEKLESLPEN [peptide 104] was tested, and the “Intensity (%)” value was 8.01%. With TPKNRAVGRPKGKLG [peptide 116] the “Intensity (%)” value was 0%.
